In the RNAGym collection of RNA variant scans (doi:10.1073/pnas.2313332121):
Fewer inactive variants are shown than the library holds.

B1: TPR 5TU (parent)
chain: GGAUCUUCUCGAUCUAACAAAAAAGACAAAUCUGCCACAAAGCUUGAGAGCAUCUUCGGAUGCAGAGGCGGCAGCCUUCGGUGGCGCGAUAGCGCCAACGUUCUCAACUAUGACACGCAAAACGCGUGCUCCGUUGAAUGGAGUUUAUCAUG

Variants of: B1
Assay: polymerase ribozyme fitness, log enrichment relative to wild type (log ratio); higher = more active; in vitro selection for triplet polymerase activity
Procedure, shortened: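 Fitness measures genotype enrichment against wild-type enrichment on a logarithmic scale, with inverse-variance-weighted averaging of replicates. The logarithm is base 2, and genotypes were kept only with ≥10 input reads and ≥1 read per output in Illumina sequencing. The sequenced libraries came from one triplicate in vitro selection round, including frozen incubation at −7 °C, of PCR-built, transcribed mutant libraries of each subunit of a heterodimeric triplet polymerase ribozyme.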

Row | Variant | polymerase ribozyme fitness (log ratio)
1 | G48A G70A U78G G84U G143U | ≤ -4.2
2 | A47U G83A U101C G117U | -0.198
3 | G46U G83C G92U | -2.34
4 | G46C U55A | -0.931
5 | A49C G50A G59U C69G C93U C99U U111G A150U | ≤ -4.2
6 | G46C A98U | -1.22
7 | G46U G68C U78A C93G C99U G100C C118A A119U U144G G152A | ≤ -4.2
8 | A47G U82A A89C C93U | -1.39
9 | A47G C87G C103U A110G | ≤ -4.2
10 | U45G G46A A64U G71U G81A A89G A142G | ≤ -4.2
11 | G48C A89U A106U A107C A120G U139G | ≤ -4.2
12 | A47C C85G C96A A98G | ≤ -4.2
13 | G46A C125A U134C | -0.78
14 | A47C G50A G92U | -1.37
15 | A49C C99U | ≤ -4.2
16 | U45A G74A C105U | ≤ -4.2
17 | U45C C108G | ≤ -4.2
18 | G48A C75G U78C | ≤ -4.2
19 | A47U U56A C85A U104A | -2.77
20 | A47C U148A | -3.16
21 | A47C U148G | -3.89

Row | Variant | polymerase ribozyme fitness (log ratio)
22 | G46A A49C G71U G86A C96U A97U | ≤ -4.2
23 | A47U A64G C93A | ≤ -4.2
24 | G48A C51A U56A G62C | -3.16
25 | A49C C93U G133A | ≤ -4.2
26 | A47U A64G A138C U144C | ≤ -4.2
27 | G48U G74A C85G A115C U134A | ≤ -4.2
28 | G48U C93U C95A A97G A98U G117C | -3.43
29 | G48A G50U U55A | -2.15
30 | G46C C75U C93G U144A | ≤ -4.2
31 | G46A C57U G58C C76A C96A U101C A106U | ≤ -4.2
32 | G46C A60U | -1.74
33 | A47U C103G A115G G140C | ≤ -4.2
34 | U45C C57A G74C G80U U101A U139A G143C | ≤ -4.2
35 | A47G A49C U104G | ≤ -4.2
36 | G48U C93A | -2.5
37 | A49C A52C G68U G84A G140A | ≤ -4.2
38 | A47U G94A | -0.308
39 | U45G G92C | -2.2
40 | G46C A91G | -3.27
41 | A47C G59A C85G | -2.62
42 | U45G G70A G92U G94A C116G G152U | ≤ -4.2

Row | Variant | polymerase ribozyme fitness (log ratio)
43 | G48C C75G C87G A91C C103G U134G U135C | ≤ -4.2
44 | A47C C72U G92A | -3.53
45 | G46A G88U C132U | ≤ -4.2
46 | G48C G50A G81U C95A U146G | -3.35
47 | G48U A49U A98G C116G G133U | ≤ -4.2
48 | A49C A106U | -3.68
49 | G46C C118G | -1.24
50 | G46A U144G | 0.469
51 | A47C G83A G92U C108U | ≤ -4.2
52 | A49C A73G U90C C149U | ≤ -4.2
53 | A47U G71C G83A C118U | ≤ -4.2
54 | A49C C54U C69A G94A U151C | ≤ -4.2
55 | A47C U56G C85G C118U A121U U144G | -1.81
56 | G48A C79U | -3.91
57 | A47C G58U G92U A97U | -1.96
58 | U45C A49C G70C G83C A137C U144C C149U | ≤ -4.2
59 | G48C C75U G81A G84U A97U G141U A150U | ≤ -4.2
60 | A47C C85U G117U | 0.38
61 | U45G G83C G117A | -1.29
62 | G48U C85U G117U A122U | 0.609
63 | G46C G83C G88C A97G | ≤ -4.2

Row | Variant | polymerase ribozyme fitness (log ratio)
64 | A47G C51U C75U C96A C103U A138G A147C | ≤ -4.2
65 | A47U A52G U53G U56A U145G | -3.64
66 | A47G A49G G71A C87U A97U A106G A107C U111G U134C | ≤ -4.2
67 | G48A C54G C57U G81A C95U A115U C131A U146G G152U | ≤ -4.2
68 | A47C C85A | -2.92
69 | G48A C85U | -2.1
70 | G48A C85A | -2.56
71 | G48C G58U C105G C114G U135C | ≤ -4.2
72 | G46A G50C U55A U56A C87U G88U C125A G136A | ≤ -4.2
73 | A47C G58U C99A | -2.46
74 | A47C G50A | -1.47
75 | A47G G59A C103A C131U U134C | -2.12
76 | U45A G48C G50C U53A U56A U61G C105G A119G G136U | ≤ -4.2
77 | U45A G81C C96G | -3.93
78 | A49C G50U A64C A73U C87A A115G C118G | ≤ -4.2
79 | A47G U53A C75G U90C | ≤ -4.2
80 | G48A G81U G92U C118A G152C | ≤ -4.2
81 | A49C G50C C54G G70A C87G A89G C103U | ≤ -4.2
82 | A47C C79G | ≤ -4.2
83 | G48U C118A | -0.303
84 | G46A A49G G50A A52U C96U C123G U139A G143C | ≤ -4.2
